# Test results from the Immune Epitope Database (IEDB).
# Legend:
# HLA-A*30:01 = assay: IEDB peptide-MHC binding, purified MHC/competitive/radioactivity; filed as Kd, often an IC50 or EC50 that approximates it; ≥ and ≤ were set here for values at or beyond the usual limits of such assays
# HLA-A*32:01 = assay: as above
# HLA-B*08:01 [1] = assay: as above
# HLA-B*15:01 [2] = assay: as above
# HLA-B*15:03 = assay: as above
# HLA-B*15:42 = assay: IEDB peptide-MHC binding, purified MHC/competitive/fluorescence; filed as Kd, often an IC50 or EC50 that approximates it; ≥ and ≤ were set here for values at or beyond the usual limits of such assays
# HLA-B*45:06 = assay: as above
# HLA-B*83:01 = assay: as above
# HLA-B*51:01 [3] = assay: IEDB peptide-MHC binding, purified MHC/direct/fluorescence; filed as Kd, often an IC50 or EC50 that approximates it; ≥ and ≤ were set here for values at or beyond the usual limits of such assays
# HLA-B*07:02 = assay: as above
# HLA-B*15:01 [4] = assay: IEDB peptide-MHC binding, purified MHC/competitive/fluorescence; filed as Kd, often an IC50 or EC50 that approximates it; ≥ and ≤ were set here for values at or beyond the usual limits of such assays
# HLA-A*02:11 = assay: IEDB peptide-MHC binding, purified MHC/direct/fluorescence; filed as Kd, often an IC50 or EC50 that approximates it; ≥ and ≤ were set here for values at or beyond the usual limits of such assays
# HLA-A*02:12 = assay: as above
# HLA-A*69:01 [5] = assay: as above
# HLA-A*03:01 [6] = assay: IEDB peptide-MHC binding, purified MHC/competitive/fluorescence; filed as Kd, often an IC50 or EC50 that approximates it; ≥ and ≤ were set here for values at or beyond the usual limits of such assays
# HLA-A*31:01 [7] = assay: as above; conditions: source organism: Escherichia coli E22
# HLA-A*26:01 = assay: as above
# HLA-A*69:01 [8] = assay: as above; conditions: source organism: Homo sapiens
# HLA-B*15:17 = assay: as above; conditions: source organism: Homo sapiens
# HLA-B*18:01 = assay: as above
# HLA-B*27:03 = assay: as above
# HLA-B*39:01 = assay: as above
# HLA-B*46:01 [9] = assay: as above; conditions: source organism: Homo sapiens
# HLA-B*51:01 [10] = assay: as above; conditions: source organism: Homo sapiens
# HLA-B*57:01 [11] = assay: as above; conditions: source organism: Homo sapiens
# HLA-A*03:01 [12] = assay: IEDB peptide-MHC binding, purified MHC/direct/fluorescence; filed as Kd, often an IC50 or EC50 that approximates it; ≥ and ≤ were set here for values at or beyond the usual limits of such assays
# HLA-A*11:01 = assay: as above
# HLA-A*24:02 = assay: IEDB peptide-MHC binding, purified MHC/competitive/fluorescence; ≥ and ≤ were set here for values at or beyond the usual limits of such assays; conditions: source organism: Sudan ebolavirus
# HLA-A*01:01 = assay: IEDB peptide-MHC binding, purified MHC/direct/fluorescence; filed as Kd, often an IC50 or EC50 that approximates it; ≥ and ≤ were set here for values at or beyond the usual limits of such assays; conditions: source organism: Zaire ebolavirus
# HLA-A*24:03 = assay: as above; conditions: source organism: Zaire ebolavirus
# HLA-A*29:02 = assay: as above; conditions: source organism: Zaire ebolavirus
# HLA-A*31:01 [13] = assay: as above; conditions: source organism: Zaire ebolavirus
# HLA-A*68:02 = assay: as above; conditions: source organism: Zaire ebolavirus
# HLA-B*08:01 [14] = assay: as above; conditions: source organism: Zaire ebolavirus
# HLA-B*15:01 [15] = assay: as above; conditions: source organism: Zaire ebolavirus
# HLA-B*27:05 = assay: as above; conditions: source organism: Zaire ebolavirus
# HLA-B*46:01 [16] = assay: as above; conditions: source organism: Zaire ebolavirus
# HLA-B*48:01 = assay: as above; conditions: source organism: Zaire ebolavirus
# HLA-B*57:01 [17] = assay: as above; conditions: source organism: Zaire ebolavirus
# HLA-B*58:01 = assay: as above; conditions: source organism: Zaire ebolavirus
# HLA-A*02:01 = assay: IEDB peptide-MHC binding, purified MHC/competitive/fluorescence; filed as Kd, often an IC50 or EC50 that approximates it; ≥ and ≤ were set here for values at or beyond the usual limits of such assays; conditions: source organism: Zaire ebolavirus
# [18] = source organism: Vaccinia virus WR
# [19] = source organism: Mycobacterium tuberculosis variant bovis BCG str. Pasteur 1173P2
# [20] = source organism: Vibrio vulnificus
# [21] = source organism: Mycobacterium tuberculosis str. Haarlem
# [22] = source organism: Escherichia coli E22
# [23] = source organism: Brucella abortus
# [24] = source organism: Vaccinia virus
# [25] = source organism: Vaccinia virus Copenhagen
# [26] = source organism: Camelpox virus CMS
# [27] = source organism: Zaire ebolavirus
sequence,measurement,setting,value
HLYNILNNI,Kd,HLA-A*30:01; [18],1450 nM
same,Kd,HLA-A*32:01; [18],72.6 nM
same,Kd,HLA-B*08:01 [1]; [18],1970 nM
same,Kd,HLA-B*15:01 [2]; [18],1480 nM
same,Kd,HLA-B*15:03; [18],1400 nM
FKFNSQVSI,Kd,HLA-B*15:03; [18],1.24 nM
KSVEDVSAF,Kd,HLA-B*15:03; [18],13.6 nM
HPVTATISF,Kd,HLA-B*15:42; [19],≥ 5000 nM
same,Kd,HLA-B*45:06; [19],≥ 5000 nM
same,Kd,HLA-B*83:01; [19],616 nM
LPDLPTTTI,Kd,HLA-B*51:01 [3]; source organism: Staphylococcus aureus,922 nM
NAFGWENAY,Kd,HLA-B*07:02; [20],350 nM
same,Kd,HLA-B*51:01 [3]; [20],≥ 20000 nM
same,Kd,HLA-B*15:01 [4]; source organism: Vibrio vulnificus YJ016,1320 nM
KTLKYSNKI,Kd,HLA-A*30:01; [18],37.5 nM
same,Kd,HLA-A*32:01; [18],1.9 nM
same,Kd,HLA-B*08:01 [1]; [18],1180 nM
same,Kd,HLA-B*15:01 [2]; [18],123 nM
same,Kd,HLA-B*15:03; [18],448 nM
LLDEGKQSL,Kd,HLA-A*02:11; [21],4 nM
same,Kd,HLA-A*02:12; [21],4 nM
same,Kd,HLA-A*69:01 [5]; source organism: Mycobacterium tuberculosis,7000 nM
SVFESWLEK,Kd,HLA-A*03:01 [6]; [22],211 nM
EMFIIKYFK,Kd,HLA-A*03:01 [6]; [22],≥ 20000 nM
same,Kd,HLA-A*31:01 [7],394 nM
same,Kd,HLA-B*15:01 [4]; [22],≥ 20000 nM
RQSSCKMAL,Kd,HLA-B*15:03; [18],18.8 nM
RPNPDFNTF,Kd,HLA-B*07:02; [23],12.6 nM
same,Kd,HLA-B*51:01 [3]; [23],≥ 20000 nM
same,Kd,HLA-B*15:01 [4]; source organism: Brucella melitensis bv. 1 str. 16M,3000 nM
LMMTATGEY,Kd,HLA-A*03:01 [6]; source organism: Escherichia coli B7A,1780 nM
SQVSSTELF,Kd,HLA-B*15:03; [18],1.83 nM
VTRFESLK,Kd,HLA-A*03:01 [6]; source organism: Influenza A virus (A/Swine/Minnesota/55551/2000(H1N2)),≥ 20000 nM
ALTKNYLSF,Kd,HLA-B*15:03; [18],40.1 nM
QTIVFIWFI,Kd,HLA-A*30:01; [24],6240 nM
same,Kd,HLA-A*32:01; [24],1760 nM
same,Kd,HLA-B*08:01 [1]; [24],16900 nM
same,Kd,HLA-B*15:01 [2]; [24],253 nM
same,Kd,HLA-B*15:03; [24],1030 nM
IMYPSPNGH,Kd,HLA-A*03:01 [6]; source organism: Shigella sonnei Ss046,7.7 nM
SPGIRPRFL,Kd,HLA-A*30:01; [25],8430 nM
same,Kd,HLA-A*32:01; [25],2810 nM
same,Kd,HLA-B*08:01 [1]; [25],55.8 nM
same,Kd,HLA-B*15:01 [2]; [25],1920 nM
same,Kd,HLA-B*15:03; [25],10300 nM
ITHPKYRKK,Kd,HLA-A*03:01 [6]; source organism: Vibrio antiquarius,≥ 20000 nM
SLGDPLHQA,Kd,HLA-A*26:01; source organism: Homo sapiens,≥ 20000 nM
same,Kd,HLA-A*69:01 [8],≥ 20000 nM
same,Kd,HLA-B*15:01 [4]; source organism: Homo sapiens,≥ 20000 nM
same,Kd,HLA-B*15:17,≥ 20000 nM
same,Kd,HLA-B*18:01; source organism: Homo sapiens,≥ 20000 nM
same,Kd,HLA-B*27:03; source organism: Homo sapiens,≥ 20000 nM
same,Kd,HLA-B*39:01; source organism: Homo sapiens,≥ 20000 nM
same,Kd,HLA-B*46:01 [9],≥ 20000 nM
same,Kd,HLA-B*51:01 [10],≥ 20000 nM
same,Kd,HLA-B*57:01 [11],≥ 20000 nM
NLQPPALSK,Kd,HLA-A*03:01 [6]; source organism: Rickettsia sibirica 246,430 nM
NKFFEVIFF,Kd,HLA-B*15:03; [18],18.8 nM
LMYPTTLLK,Kd,HLA-A*03:01 [12]; [26],4.5 nM
same,Kd,HLA-A*11:01; [26],2.2 nM
same,Kd,HLA-B*15:42; [18],≥ 5000 nM
same,Kd,HLA-B*45:06; [18],≥ 5000 nM
same,Kd,HLA-B*83:01; [18],≥ 5000 nM
YDRLASTVI,IC50,HLA-A*24:02,2490 nM
same,Kd,HLA-A*01:01,≥ 20000 nM
same,Kd,HLA-A*02:11; [27],≥ 20000 nM
same,Kd,HLA-A*02:12; [27],≥ 20000 nM
same,Kd,HLA-A*03:01 [12]; [27],≥ 20000 nM
same,Kd,HLA-A*11:01; [27],≥ 20000 nM
same,Kd,HLA-A*24:03,≥ 20000 nM
same,Kd,HLA-A*29:02,≥ 20000 nM
same,Kd,HLA-A*31:01 [13],≥ 20000 nM
same,Kd,HLA-A*68:02,≥ 20000 nM
same,Kd,HLA-A*69:01 [5]; [27],≥ 20000 nM
same,Kd,HLA-B*07:02; [27],≥ 20000 nM
same,Kd,HLA-B*08:01 [14],≥ 20000 nM
same,Kd,HLA-B*15:01 [15],≥ 20000 nM
same,Kd,HLA-B*27:05,≥ 20000 nM
same,Kd,HLA-B*46:01 [16],≥ 20000 nM
same,Kd,HLA-B*48:01,≥ 20000 nM
same,Kd,HLA-B*57:01 [17],≥ 20000 nM
same,Kd,HLA-B*58:01,≥ 20000 nM
same,Kd,HLA-A*02:01,≥ 20000 nM
same,Kd,HLA-A*26:01; [27],≥ 20000 nM
same,Kd,HLA-B*18:01; [27],≥ 20000 nM
same,Kd,HLA-B*27:03; [27],≥ 20000 nM
same,Kd,HLA-B*39:01; [27],≥ 20000 nM
LIPFLILFI,Kd,HLA-A*30:01; [25],97 nM
same,Kd,HLA-A*32:01; [25],12100 nM
same,Kd,HLA-B*08:01 [1]; [25],49.7 nM
same,Kd,HLA-B*15:01 [2]; [25],471 nM
same,Kd,HLA-B*15:03; [25],195 nM
VSFSPSLTF,Kd,HLA-A*32:01; [25],736 nM
same,Kd,HLA-B*15:01 [2]; [25],1.26 nM
same,Kd,HLA-B*15:03; [25],1.22 nM
AKSKFPRSM,Kd,HLA-B*15:03; [18],0.261 nM
